This note sets out measurements from doi:10.1101/2025.01.10.632437 (bioRxiv, 2025).

What all share (experiment): cryo-EM structure
Data set [1] deals with the molecule itself.
Data set [2] deals with the molecule itself. This is another data set of the same source.
Data set [3] concerns the molecule itself. This is another data set of the same source.

Where two headings read alike, the source gives them in different places.

B1: murine TMEM16F with C-terminal vYFP and SBP-tag (natural protein, mouse)
chain: QMMTRKVLLNMELEEDDDEDGDIVLENFDQTIVCPTFGSLENQQDFRTPEFEEFNGKPDSLFFTDGQRRIDFILVYEDESKKENNKKGTNEKQKRKRQAYESNLICHGLQLEATRSVSDDKLVFVKVHAPWEVLCTYAEIMHIKLPLKPNDLKTRSPFGNLNWFTKVLRVNESVIKPEQEFFTAPFEKSRMNDFYILDRDSFFNPATRSRIVYFILSRVKYQVMNNVNKFGINRLVSSGIYKAAFPLHDCRFNYESEDISCPSERYLLYREWAHPRSIYKKQPLDLIRKYYGEKIGIYFAWLGYYTQMLLLAAVVGVACFLYGYLDQDNCTWSKEVCDPDIGGQILMCPQCDRLCPFWRLNITCESSKKLCIFDSFGTLIFAVFMGVWVTLFLEFWKRRQAELEYEWDTVELQQEEQARPEYEAQCNHVVINEITQEEERIPFTTCGKCIRVTLCASAVFFWILLIIASVIGIIVYRLSVFIVFSTTLPKNPNGTDPIQKYLTPQMATSITASIISFIIIMILNTIYEKVAIMITNFELPRTQTDYENSLTMKMFLFQFVNYYSSCFYIAFFKGKFVGYPGDPVYLLGKYRSEECDPGGCLLELTTQLTIIMGGKAIWNNIQEVLLPWVMNLIGRYKRVSGSEKITPRWEQDYHLQPMGKLGLFYEYLEMIIQFGFVTLFVASFPLAPLLALVNNILEIRVDAWKLTTQFRRMVPEKAQDIGAWQPIMQGIAILAVVTNAMIIAFTSDMIPRLVYYWSFSIPPYGDHTYYTMDGYINNTLSVFNITDFKNTDKENPYIGLGNYTLCRYRDFRNPPGHPQEYKHNIYYWHVIAAKLAFIIVMEHIIYSVKFFISYAIPDVSKITKSKIKREKYLTQKLLHESHLKDLTKNMGIIAERIGGTVDNSVRPKLE
For the protein B1, the stoichiometry N (as a rule, the number of molecules, sites or subunits per partner or assembly) in “cryo-EM structure [1]” turned out to be 2.

B2: bovine TMEM206/PACC1 with C-terminally fused venus-YFP followed by a streptavidin binding peptide tag (natural protein)
chain: not shown
Consider B2, for which the binding result in “cryo-EM structure [2]” is recorded as “binds”.

B3: bovine proton-activated Cl- channel TMEM206/PACC1 without vYFP (conventional purification) (natural protein)
chain: not shown
As for B3, in “cryo-EM structure [3]”, the binding result is reported as “binds”.
